Like-named read-outs stand apart in the source and are kept apart here.
B1: HB80.3_s4_E94 (designed binder)
chain: ASTRGSGRPWKFSENVAFELALYFTNKDTPDRWAKVARYVKGRTPEEVKKHYE
B2: HB36.4_s4_E11 (designed binder)
chain: MSNAMDGQQLNRLLLEWIGAWDPFGLGKDAYDVEADAVLKAVYETNSAFDLAMRIHWIYNFAFKRKIPFVHAQKLARRLLELKQAASSPLP
B3: HB80.3_s4_E82 (designed binder)
chain: MASTRGSGRPWKFSENVAFEIALSFTNKDTPDRWAKVARYVRGRTPEEVKKHYE

Columns and labels:
[1] = target: T1, A/South Carolina/1/1918 (H1N1) hemagglutinin ectodomain (Influenza A virus A/South …); experiment: yeast surface display titration
[2] = target: T1, A/South Carolina/1/1918 (H1N1) …; experiment: yeast surface display titration; remark: listed apart in the source

Row | Binder | binding result [1] | binding result [2]
1 | B1 | binds | 
2 | B2 |  | binds
3 | B3 | binds | 

— US20150038408A1 (University of Washington, published 2015)
